Where “and” joins values, the source holds several entries; their conditions need not be identical. Equal values may be shown once. Read-outs that look alike come from different tables or passages of the source.

For experiment [1], the target named is T1, recombinant human LAMP1 (29-382 of SEQ ID NO: 28) (Homo sapiens, UniProt P11279).
T1 construct: made in house; host or cells: HEK293 (293-F), transient expression, IMAC-purified
T1 sequence (P11279 with tags, fused parts or gaps): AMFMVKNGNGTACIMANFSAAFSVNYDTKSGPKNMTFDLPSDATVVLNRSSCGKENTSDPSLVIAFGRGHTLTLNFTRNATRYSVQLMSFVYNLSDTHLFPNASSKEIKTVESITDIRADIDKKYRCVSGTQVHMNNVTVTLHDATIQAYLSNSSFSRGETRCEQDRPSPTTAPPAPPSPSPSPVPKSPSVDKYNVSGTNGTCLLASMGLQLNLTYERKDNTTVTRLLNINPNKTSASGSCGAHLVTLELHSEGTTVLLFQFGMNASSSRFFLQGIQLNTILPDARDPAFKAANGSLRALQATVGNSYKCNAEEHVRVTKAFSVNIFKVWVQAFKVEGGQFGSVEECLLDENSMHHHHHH
Briefly: ELISA on recombinant human LAMP1. The format is binding. On the technique in general: An ELISA detects its analyte on a solid surface through an enzyme-linked reagent.

For experiment [2], the system named is cynomolgus LAMP1 expressed at the cell surface of recombinant HCT116. Briefly: FACS on recombinant HCT116 stable clones expressing cynomolgus LAMP1. The format is binding, cynomolgus monkey. To be noted: HCT116 stable clone. On the procedure:
HCT116 cells were infected by a lentiviral vector allowing stable integration of the human or the cynomolgus LAMP1 CDS in genomic DNA of cells. Individual clones with different densities of human or cynomolgus LAMP1 cell surface localization were derived from a pool of HCT116 infected cells. […] 100 μL/well of goat anti-human IgG conjugated with Alexa488 (Invitrogen; #A11013) was added for 1 h at 4° C. and washed two times with PBS 1% BSA. The antibody binding was evaluated after centrifugation and resuspension of cells in 100 μl fixing solution (paraformaldehyde at 4% in PBS). Samples were read using Galaxy® Flow Cytometry System (Partec). EC50 values were estimated using BIOST@T-SPEED software.
100 μL/well of goat anti-mouse IgG conjugated with Alexa647 (Invitrogen; #A2135) was added for 45 min at 4° C. and washed three times with PBS 1% BSA. The antibody binding was evaluated after centrifugation and re-suspension of cells by adding 200 μl/well PBS 1% BSA and read using Guava® easyCyte™ 8HT Flow Cytometry System. EC50 values were estimated using BIOST@T-SPEED software.

In experiment [3] the target is T2, LAMP1 (SEQ ID NO: 28 protein) (Homo sapiens, UniProt P11279).
T2 construct: made in house; host or cells: HEK293 (293-F), transient expression, IMAC-purified
T2 sequence (P11279 with tags, fused parts or gaps): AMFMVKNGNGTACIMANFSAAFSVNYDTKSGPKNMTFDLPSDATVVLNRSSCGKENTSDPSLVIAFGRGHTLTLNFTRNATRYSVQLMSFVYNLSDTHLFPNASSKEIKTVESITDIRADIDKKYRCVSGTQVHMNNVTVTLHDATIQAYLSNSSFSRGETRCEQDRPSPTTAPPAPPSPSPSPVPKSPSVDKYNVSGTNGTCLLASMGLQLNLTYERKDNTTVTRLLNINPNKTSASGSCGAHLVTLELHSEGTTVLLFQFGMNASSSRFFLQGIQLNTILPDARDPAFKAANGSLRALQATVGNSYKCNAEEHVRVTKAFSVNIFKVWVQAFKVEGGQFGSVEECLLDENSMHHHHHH
Briefly: Affinity to LAMP1 by SPR (BIAcore 2000). The class given is binding. On the procedure:
The use of surface plasmon resonance to determine is known to the skilled in the art. In one example the binding kinetics of for example the murine, chimer or humanized anti-LAMP1 mAbs were determined by surface plasmon resonance assay using typically a BIAcore 2000 (BIAcore Inc., Uppsala, N.J.). Therefore, for example a CM5 BIAcore biosensor chip was docked into the instrument and activated with for example 70 μL of 1:1 NHS/EDC at room temperature. Typically, a mouse anti-αhuman Fc IgG1 (BIAcore #BR-1008-39) and rabbit anti-αmurine Fc IgG1 (BIAcore #BR-1008-38) (50 μg/mL in 1 M acetate buffer, pH5) were immobilized on the activated chips in all flow cells. The immobilization was carried out at a flow rate of for example 10 μL/min up to saturation. The chip was then blocked by for example injection of 70 μL of ethanolamine-HCl, pH 8.5, followed by one wash with 3 M MgCl2 for anti-αhuman Fc IgG1 and one wash with 10 mM Glycine-HCl pH 1.7 for anti-αmurine Fc IgG1. To measure the binding of for example anti-LAMP1 mAbs to LAMP1, antibodies were used at 1-5 μg/mL in BIAcore running buffer (HBS-EP). The antigen for example (Sequence ID No 28 protein produced as described in example 6.2) was injected from for example 1 to 256 nM. Following completion of the injection phase, dissociation was monitored in a BIAcore running buffer at the same flow rate for typically 600 sec. The surface was typically regenerated between injections using for example 2×5 μL 3 M MgCl2 (2×30 s) or anti-αhuman Fc IgG1 and 1×30 μL 10 mM Glycine-HCl pH 1.7 for anti-αmurine Fc IgG1 (180 s). Individual sensorgrams were typically analyzed using BIAevaluation software.
The binding kinetics of the murine, chimer or humanized anti-LAMP1 mAbs were determined by surface plasmon resonance assay using a BIAcore 2000 (BIAcore Inc., Uppsala, N.J.). Briefly, a CM5 BIAcore biosensor chip was docked into the instrument and activated with 70 μL of 1:1 NHS/EDC at room temperature. A mouse anti-αhuman Fc IgG1 (BIAcore #BR-1008-39) and rabbit anti-αmurine Fc IgG1 (BIAcore #BR-1008-38) (50 μg/mL in 1 M acetate buffer, pH5) were immobilized on the activated chips in all flow cells. The immobilization was carried out at a flow rate of 10 μL/min up to saturation. The chip was then blocked by injection of 70 μL of ethanolamine-HCl, pH 8.5, followed by one wash with 3 M MgCl2 for anti-αhuman Fc IgG1 and one wash with 10 mM Glycine-HCl pH 1.7 for anti-αmurine Fc IgG1. To measure the binding of anti-LAMP1 mAbs to LAMP1, antibodies were used at 1-5 μg/mL in BIAcore running buffer (HBS-EP). The antigen (SEQ ID NO: 28 protein produced as described in example 6.2) was injected from 1 to 256 nM. Following completion of the injection phase, dissociation was monitored in a BIAcore running buffer at the same flow rate for 600 sec. The surface was regenerated between injections using 2×5 μL 3 M MgCl2 (2×30 s) or anti-αhuman Fc IgG1 and 1×30 μL 10 mM Glycine-HCl pH 1.7 for anti-αmurine Fc IgG1 (180 s). Individual sensorgrams were analyzed using BIAevaluation software.
On the technique in general: In SPR one partner is held on a chip, and binding of the other changes the refractive index at the surface.

Where [4] appears, read: ELISA (Table 7), read-out: EC50.
Setting [5] is: ELISA (Table 13), read-out: EC50 (nM) human LAMP1.
The mark [6] stands for this setting: ELISA (Table 21), read-out: EC50 obtained for murine hybridoma mAbs hLAMP1.

Chain of cynomolgus LAMP1 expressed at the cell surface of recombinant HCT116 (as listed by the source): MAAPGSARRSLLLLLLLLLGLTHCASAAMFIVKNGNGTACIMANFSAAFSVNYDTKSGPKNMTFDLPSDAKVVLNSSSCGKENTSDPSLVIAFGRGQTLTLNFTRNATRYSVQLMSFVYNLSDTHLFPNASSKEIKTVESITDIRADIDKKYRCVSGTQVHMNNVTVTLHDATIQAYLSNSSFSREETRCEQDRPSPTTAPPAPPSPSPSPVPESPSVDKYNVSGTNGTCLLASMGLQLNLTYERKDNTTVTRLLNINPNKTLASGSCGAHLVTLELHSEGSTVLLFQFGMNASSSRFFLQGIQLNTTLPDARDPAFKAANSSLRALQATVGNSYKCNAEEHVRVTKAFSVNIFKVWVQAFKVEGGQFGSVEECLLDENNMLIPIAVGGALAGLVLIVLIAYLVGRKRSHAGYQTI

B1: MAb1: murine monoclonal anti-LAMP1 antibody, VH SEQ ID NO: 1, VL SEQ ID NO: 5 (antibody, V domains shown)
VH: QVQLQQSGAELVKPGASVKMSCKASGYIFTNYNIHWVKKSPGQGLEWIGAIYPGNGDAPYSQKFKDKATLTADKSSSTTYMQLSRLTSEDSAVYYCVRANWDVAFAYWGQGTLVSVSA
VL: DIQMTQSPPSLSASLGGKVTITCKASQDIDRYMAWYQDKPGKGPRLLIHDTSTLQPGIPSRFSGSGSGRDYSFSISNLEPEDIATYYCLQYDNLWTFGGGTKLEIK
modifications: Antibody Fragment; antibody fragment
The term EC50 denotes the concentration at which the effect is half-maximal. The term Kd denotes the free concentration of one partner at which half of the binding sites on the other are occupied at equilibrium, for simple one-to-one binding. The low end stands for higher affinity, the high end for lower affinity. With B1, the EC50 is 0.18 nM in experiment [1] (setting [4]); 0.18 nM in experiment [1] (setting [5]); 0.18 nM in experiment [1] (setting [6]); 0.16 nM and ~0.2 nM in experiment [1] (ELISA, read-out: EC50 to LAMP1); 5.5 nM in experiment [2]. In addition, the Kd in experiment [3] came out at 4.8 nM. The molecule also displayed a ka in experiment [3] of 148000 M⁻¹ s⁻¹. The molecule further showed a kd in experiment [3] of 0.00071 s⁻¹.

B2: MAb2: murine monoclonal anti-LAMP1 antibody, VH SEQ ID NO: 8, VL SEQ ID NO: 12 (antibody, V domains shown)
VH: QVQLQQSAAELARPGASVKMSCKASGYTFTSYTMHWVKQRPGQGLEWIGYFNPSSGYPEYNQKFKDKTTLTADKSSNTAFIQLNSLTSEDSAVYYCSRGYYYGSRGYALDFWGQGASVTVSS
VL: NIVLTQSPVSLAVSLGQRATISCRASESVDINGNTFMHWYQQKPGQSPKLVIYAASNIESGVPARFSGSGSSTDFTFTIDPVEADDVATYYCQQNIEDPWTFGGGTKVEIK
modifications: antibod fragment; antibody fragment
Turning to B2, the concentration giving a half-maximal response (EC50) in experiment [1] (setting [4]) is 0.25 nM; in experiment [1] (setting [5]), 0.25 nM; in experiment [1] (setting [6]), 0.25 nM; in experiment [1] (ELISA, read-out: EC50 to LAMP1), roughly 0.3 nM; in experiment [2] it was 6.6 nM. The same molecule gave a Kd in experiment [3] of 63.5 nM. Further, the ka in experiment [3] stood at 63300 M⁻¹ s⁻¹. This molecule yielded a kd in experiment [3] of 0.00402 s⁻¹.

Values taken from US9809653B2, “Anti-LAMP1 antibodies and antibody drug conjugates, and uses thereof” (SANOFI, priority 2012, dated 2017).
